# Results as given in US20130034894A1, “NOVEL ALLENE OXIDE SYNTHASE DERIVED FROM LEMNA PAUCICOSTATA” (priority 2010, published 2013).
# B1: SHLpAOS: allene oxide synthase obtained from the Lemna paucicostata SH strain, expressed in Escherichia coli (SEQ ID NO: 2, 480 aa) (protein, listed as Lemna paucicostata)
# chain: MSVSQSDDKAALVPQKTIPGSYGIPFITPLKDRLDFFSNEYQFFQSRVESYGSTIVRLNAPPGPFMAKNPQVIAILDGKSFPVLFDTSKVEKKNIFTGTYMPSTALTGGYRVCAYLDPSEPNHTKIKQLLLNILFNRKDHVIPEFHRAYEKLFDDMDAEIAKSGKFVFNDHNDGAAFEFLGRLFFGVSPSETELGAGGVKDANLWLFSQLCPLMTLGFLPKLLEDLLLHTFPLPPFLFKGKYQAIYKYISSVATDALTMAENLGLSREEAAHNLLFAVCFNSLGGVKVLFPGILRYIAQAGKNLQASLVSEVRSAVSSTGGELTIEALEKMPLTKSVVYESLRLDPPVKYQYGVVKKDMVIESHDRSYEVKAGETLFGYQPFATRDKKIFGPDADNFVAERFIGEEGAKVLRFVVWSNGPETTDPTPVDKQCPGKNLVVLISRLLVAEFFLRYDFFDAEIGAVPLAVKTTITSLTKATTR
# B2: AtAOS: A. thaliana-derived allene oxide synthase (AOS) protein used as the control, expressed in Escherichia coli (protein, UniProt Q96242 34-518, looked up)
# Allene oxide synthase, …: SGSETPDLTVATRTGSKDLPIRNIPGNYGLPIVGPIKDRWDYFYDQGAEEFFKSRIRKYNSTVYRVNMPPGAFIAENPQVVALLDGKSFPVLFDVDKVEKKDLFTGTYMPSTELTGGYRILSYLDPSEPKHEKLKNLLFFLLKSSRNRIFPEFQATYSELFDSLEKELSLKGKADFGGSSDGTAFNFLARAFYGTNPADTKLKADAPGLITKWVLFNLHPLLSIGLPRVIEEPLIHTFSLPPALVKSDYQRLYEFFLESAGEILVEADKLGISREEATHNLLFATCFNTWGGMKILFPNMVKRIGRAGHQVHNRLAEEIRSVIKSNGGELTMGAIEKMELTKSVVYECLRFEPPVTAQYGRAKKDLVIESHDAAFKVKAGEMLYGYQPLATRDPKIFDRADEFVPERFVGEEGEKLLRHVLWSNGPETETPTVGNKQCAGKDFVVLVARLFVIEIFRRYDSFDIEVGTSPLGSSVNFSSLRKASF
# Legend:
# [1] = Activity testing in KODA production (HPLC quantitation of KODA); format: biochemical; conditions: 0.32 ng protein in 20 μl 9-HPOT reaction solution, room temperature, 10 minutes; relative to AtAOS
# From the text: The allene oxide synthase activity can be determined by allowing a 9-product specific lipoxygenase to act on α-linolenic acid, and then adding a given amount of allene oxide synthase to the enzymatic reaction product 9-hydroperoxylinolenic acid (9-HPOT) to produce KODA, and the KODA produced is quantitatively analyzed by HPLC.
# After the SHLpAOS sequence integrated into the pTAC-2 vector by the above method was cleaved with NcoI and XhoI, it was introduced into a commercially available vector pET41a (Novagen) for protein expression to obtain a plasmid pET41a/SHLpAOS for expression of Lemna paucicostata allene oxide synthase. This plasmid was transformed into Escherichia coli strain BL21(DE3) (Novagen). Then, it was inoculated in 3 ml of the LB medium containing 30 mg/l kanamycin, and cultured under shaking overnight at 37° C. and 250 rpm. 100 μl of this culture liquid was added to 10 ml of the LB medium containing the same concentration of kanamycin and 1% glucose and cultured under shaking at 37° C. and 250 rpm for 3-4 hours. […]
# In the activity testing in KODA production, 5 mM linolenic acid solution (dissolved in 0.1% Tween 80 solution) was prepared, and reacted with lipoxygenase extracted from rice germ at pH 7 at room temperature for 10 minutes to synthesize 9-hydroperoxylinolenic acid (9-HPOT) solution. […] 10 μl of this solution was analyzed by HPLC. […]
# [2] = Kinetic analysis of allene oxide synthase (decrease in absorbance at 234 nm, Hanes-Woolf plot); format: biochemical; conditions: for Kcat / Km / Vmax: substrate 9-HPOT 5-53 μM, 40 mM phosphate buffer pH 7.5, 1% EtOH, 25° C.
# Protocol: SHLpAOS obtained from Lemna paucicostata SH strain was subjected to kinetic analysis. Using a reaction mixture comprising 40 mM phosphate buffer (pH 7.5) and 1% EtOH, the reaction was carried out at a temperature of 25° C. The substrate 9-HPOT was tested at the substrate concentration of 5-53 μM. The substrate 9-HOPT was added as an EtOH solution, and the final concentration of EtOH was adjusted to 1%. 100 μl of the reaction mixture was added into a cuvette, and a decrease in absorbance at 234 nm was scanned over time for 1 minute at an interval of 2 seconds using the SmartSpec Plus Spectrophotometer (Bio-Rad). From the A234 determined, the amount of the reaction product was calculated (e=25,000). Kinetic parameters were determined using the Hanes-Woolf plot ([S]/v versus [S] plot). […] It is believed that compared to AtAOS, SHLpAOS is a very useful AOS in the practical production of KODA.
Molecule,"Activity in KODA production, higher than the AtAOS protein [1] [fold]","Affinity for 9-HPOT, higher than AtAOS ([2]; relative to AtAOS)","Kcat value, higher than in AtAOS ([2]; relative to AtAOS)","Kcat/Kn value, higher than in AtAOS ([2]; relative to AtAOS)","Vmax, higher than AtAOS ([2]; relative to AtAOS)",Kcat [2] [s⁻¹],Km [2] [µM],Vmax [2] [µmol/s]
B1,~7,about 5 fold,about 2.8 fold,about 14 fold,about 2.8 fold,709.2 ± 44.3,7.1 ± 1.9,4.7 ± 0.3
B2,–,–,–,–,–,255.5 ± 4.8,36.3 ± 1.3,1.7 ± 0.03
